The text below walks through data of patent US20140314667A1, “METHODS OF TREATING EPIDERMAL GROWTH FACTOR DELETION MUTANT VIII RELATED DISORDERS” (AMGEN INC., priority 2011, published 2014).

One assay addresses T1, EGFRvIII-peptide-OVA (Homo sapiens, UniProt P00533, DELINS30-297G).
T1 construct: 207 μg of EGFRvIII PEP3 was reduced; host or cells: synthetic peptide, chemical conjugation
Description: B-cell culture supernatant ELISA on EGFRvIII-peptide-OVA. Format: binding. To be noted: for 1′ VIII-pep-OVA OD / 2′ VIII-pep-OVA OD: Table 3.8. The procedure:
B-cells from the above-discussed animals were harvested and cultured. Those secreting EGFRvIII-peptide specific antibodies were isolated as described in Babcook et al., Proc. Natl. Acad. Sci. USA, 93:7843-7848 (1996). ELISA was used to identify primary EGFRvIII-peptide-OVA-specific wells. About 5 million B-cells were cultured from XenoMouse animals in 24596 well plates at 500 or 150 or 50 cells/well, and were screened on EGFRvIII-peptide-OVA to identify the antigen-specific wells.
(§1) 244 of EGFRvIII-peptide-OVA-Elisa positive wells of OD >0.5 were screened again on EGFRvIII-peptide-OVA and on OVA to confirm that they were EGFRvIII-peptide specific.
(In general: In an ELISA, binding on a coated surface is turned into a signal by an enzyme label.)

A further assay concerns the target T2, OVA (Gallus gallus, UniProt P01012).
T2 sequence (P01012 1-386): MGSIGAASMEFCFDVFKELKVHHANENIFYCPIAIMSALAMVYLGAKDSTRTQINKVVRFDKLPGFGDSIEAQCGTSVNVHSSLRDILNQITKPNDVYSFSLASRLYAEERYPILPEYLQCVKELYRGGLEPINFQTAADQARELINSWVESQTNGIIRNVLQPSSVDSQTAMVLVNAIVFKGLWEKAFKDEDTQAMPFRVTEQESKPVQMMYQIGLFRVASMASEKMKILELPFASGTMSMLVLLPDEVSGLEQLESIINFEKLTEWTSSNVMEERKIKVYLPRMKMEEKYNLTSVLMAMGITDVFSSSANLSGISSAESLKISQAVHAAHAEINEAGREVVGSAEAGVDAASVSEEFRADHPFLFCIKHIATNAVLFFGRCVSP
The assay is described as follows: B-cell culture supernatant ELISA on OVA (specificity control). Format: binding. To be noted: Table 3.8.
Source text: as §1

The target in assay [1] is T3, native form of EGFRvIII stably expressed on NR6 cells (NR6 M cells) (Homo sapiens, UniProt P00533, DELINS30-297G).
T3 construct: NR6 M cells stably expressing full length EGFRvIII; expressed in transfected cells; host or cells: NR6 cells (NR6 M)
The assay is described as follows: Native cell binding assay by FMAT, NR6 M cells. The settings on record: total fluorescent intensity. The protocol: EGFRvIII peptide-OVA-Elisa positive well supernatants were analyzed for their ability to bind to the native form of EGFRvIII stably expressed on NR6 cells (NR6 M cells) (See, Batra et al. Epidermal growth factor ligand-independent, unregulated, cell-transforming potential of a naturally occurring human mutant EGFRvIII gene. Cell Growth Differ. 6(10):1251-9 (1995)). NR 6 M cells were seeded at 8000 cells per well and incubated over night in 96 well FMAT plates. Media was then removed leaving 15 μl in the well. 15 μl B-cell culture supernatants were added and 15 μl anti-human IgG Fc Cy5 at 1 μg/ml final concentration added to wells. It is then left incubated at 4° C. for 2 hours. The cells were washed with 150 μl PBS, and fixed before reading on FMAT. The results were expressed as total fluorescent intensity (Table 3.8).

The target of assay [2] is T4, NR6 Wt cells (NR6 cells expressing EGF receptor) (Homo sapiens, UniProt P00533).
T4 construct: expressed in transfected cells; host or cells: NR6 cells (NR6 Wt)
Description: Native cell binding assay by FMAT, NR6 Wt cells. The settings on record: for FMAT native binding to NR6 Wt cells: total fluorescent intensity. From the text: The same type of native binding assay was done on NR6 Wt cells (NR6 cells expressing EGF receptor) (See Batra et al. Epidermal growth factor ligand-independent, unregulated, cell-transforming potential of a naturally occurring human mutant EGFRvIII gene. Cell Growth Differ. 6(10):1251-9 (1995)) to eliminate the binding is due to binding to Wt receptor (Table 3.8). ABX-EGF was used as a positive control and PK 16.3.1 at the same concentration was used as a negative control antibody. 3 out the 134 NR6 M binders were binding strongly to NR6 Wt cells. 190 of the 244 wells bound EGFRvIII peptide in Elisa were also bound to the native form on cells.
In this example, binding of anti-EGFRvIII antibodies to NR6 M cells was measured. Specifically, unquantitated supernatants of XenoMax derived IgG1 recombinant antibodies were assayed for their ability to bind to NR6 M and NR6 WT cells. Cells were seeded at 10000/well and incubated overnight at 37 C in FMAT 96 well plates. Media was removed and 40 μl mini lipo supernatant (titrated down) was added, the cells were incubated on ice for 1 hr. […] The PK 16.3.1 antibody was used as a negative control. The cells were washed with Cold PBS, secondary antibody was added (SS Alexa antihuman IgG Fc) at 1 μg/ml, 40 μl/well and incubated on ice for 1 hr. The cells were then washed with Cold PBS and fixed and read by FMAT. All antibodies were tested for specificity for binding by counter screening against NR6 WT cells.

For assay [3], the target named is T5, EGFRvIII receptor on NR6 M cells (Homo sapiens, UniProt P00533, DELINS30-297G).
T5 construct: NR6 M cells stably expressing full length EGFRvIII; expressed in transfected cells; host or cells: NR6 cells (NR6 M)
The assay is described as follows: Internalization assay (FMAT, glutathione) of B cell culture supernatants. Format: cell-based. The settings on record: for % internalized, (glut+/glut−) × 100 / With glutathione FL1xcount: 37° C. for 30 mins; for With glutathione FL1xcount: 50 mM glutathione; for No glutathione FL1xcount: kept on ice. The protocol:
The top 60 native binding B cell culture supernatants were further assayed for their ability to internalize the receptor. NR6 M cells were seeded at 8000 cells/well into 96 well FMAT plates and incubated overnight. Media was removed and 10-15 μl B-Cell culture supernatant in a total volume of 30 μl media, in duplicate was added. Next, 15 μl of secondary antibody (SS Alexa 647 anti-human IgG Fab at 1.5 μg/ml final concentration) was added and the mixture was incubated on ice for 1 hr. An irrelevant B-Cell Culture supernatant was used to see the effect of the culture media. Human anti-EGFRvIII mAb 13.2.1 was used as a positive control starting at 1 μg/ml (final concentration) and negative control was PK 16.3.1 (human anti-KLH IgG2 antibody) at the same concentration. After incubation, the cells were washed with cold PBS, 50 μl media was added to all of the wells, one of the duplicates were incubated at 37° C. for 30 mins while the other duplicate remained on ice. After the incubations media was removed, 100 ul of cold 50 mM glutathione was added to the set incubated at 37° C. and 100 μl of cold media added to the other set, both sets were then left on ice for 1 hr. The cells were then washed with 100 μl cold PBS and then fixed with 1% paraformaldehyde and read in FMAT. The results were expressed as % internalized, calculated as total fluorescence in the presence of glutathione/total fluorescence in the absence of glutathione×100.

In assay [4] the target is T6, EGFRvIII receptor in NR6 M cells (Homo sapiens, UniProt P00533, DELINS30-297G).
T6 construct: NR6 M cells stably expressing full length EGFRvIII; expressed in transfected cells; host or cells: NR6 cells (NR6 M)
The assay is described as follows: Internalization of EGFRvIII receptor by recombinant mAbs (FACS). Format: cell-based. To be noted: 0.25 μg/ml antibody, 1 hr. The protocol: XenoMax derived IgG1 recombinant antibodies were expressed, purified and quantitated as described previously. Antibodies were further assayed for their ability to internalize the EGFRvIII receptor in NR6 M cells. […] The cells were washed with cold 10% FCS in PBS and secondary antibody (SS Alexa antihuman IgG Fab) at 3 μg/ml Fab was added and incubated for 7 mins on ice. The cells were washed with cold 10% FCS in PBS once and then resuspended in cold media. Next, two sets of the triplicate were incubated at 37° C. and the remaining set was incubated at 4° C. for 1 hr. After that the cells incubated at 4° C. and one set of the cells incubated at 37° C. were treated with glutathione (as previously mentioned) for 1 hr on ice. Then the cells were washed and resuspended in 100 μl of cold 1% FCS in PBS and analyzed by FACS. The % internalization was calculated from the geometric mean obtained from the FACS analysis [(mean at 37° C. with glutathione−mean at 4° C. with glutathione)/(mean at 37° C. without glutathione−mean at 4 C with glutathione)].

The target of assay [5] is T7, EGFRvIII expressing cells (H1477) (Homo sapiens, UniProt P00533, DELINS30-297G).
T7 construct: host or cells: H1477 cells
Description: Selectivity for EGFRvIII expressing cells compared to ABX-EGF. Format: binding.

B1: 333: XenoMax derived anti-EGFRvIII antibody, SEQ ID NO: 17/32 (antibody, listed as Homo sapiens, V domains shown)
VH: QVQLVESGGGVVQPGRSLRLSCVASGFTLSSYGMHWVRQALGKGLEWVAVTSYDGSKKDYADSVKGRFTISRDNSKNTLYLQMNSLRAEDTAVYYCVSEGYCDSTSCYKYYYYGMDVWGQGTTVTVSS
VL: DIVMTQSPLSLPVTPGEPASISCRSSQSLLYRNGNNYLDWYLQRPGQSPQLLIYLGSNRASGVPDRFSGSGSGTDFTLKISRVEAEDVGVYYCMQALQTPRTFGQGTKVEIK
As for B1, in the assay with EGFRvIII-peptide-OVA, the “1′ VIII-pep-OVA OD” value came out at 0.8555 and the “2′ VIII-pep-OVA OD” value is listed as 1.2070. In the assay with OVA, the “OVA OD” value is 0.1649. The “FMAT native binding to NR6 M cells” value in assay [1] came to 109379. For the same molecule, the “FMAT native binding to NR6 Wt cells” value in assay [2] amounted to 0. Besides, in assay [3], the “% internalized, (glut+/glut−) × 100” value was 37.1%; the “With glutathione FL1xcount” value worked out at 13293; the “No glutathione FL1xcount” value is listed as 35820.

B2: 129A7: XenoMax derived anti-EGFRvIII antibody, heavy chain of 124 (SEQ ID NO: 13), light chain of 123 (SEQ ID NO: 29) (antibody, listed as Homo sapiens, V domains shown)
VH: QVQLVESGGGVVQPGRSLRLSCAASGFTLSSYGMHWVRQAPGKGLEWVAVMSYDGSKEDYADSVKGRFTISRDNSENTLYLQMNSLRAEDTAVYYCVSEGYCSSRSCYKYYYYGMDVWGQGTTVTVSS
VL: DIVMTQSPLSLPVTPGEPASISCRSSQSLLYRNGNNYLDWYLQKPGQSPQLLIYLGSNRASGVPDRFSGSGSGTDFTLNISRVEAEDVGHYYCMQALQTPRTFGQGTKVEIK
Consider B2, for which, in the assay with EGFRvIII-peptide-OVA, the “1′ VIII-pep-OVA OD” value was found to be 2.1501 and the “2′ VIII-pep-OVA OD” value worked out at 2.8208. The “OVA OD” value in the assay with OVA is 0.1515. In addition, the “FMAT native binding to NR6 M cells” value in assay [1] turned out to be 84024. Besides, the “FMAT native binding to NR6 Wt cells” value in assay [2] was 0. Besides, in assay [3], the “% internalized, (glut+/glut−) × 100” value was found to be 31.5%; the “With glutathione FL1xcount” value is recorded as 8708; the “No glutathione FL1xcount” value worked out at 27648.

B3: 139: XenoMax derived anti-EGFRvIII antibody, SEQ ID NO: 10/25 (antibody, listed as Homo sapiens, V domains shown)
VH: EVQVLESGGGLVQPGGSLRLSCAASGFTFSSYAMSWVRQAPGKGLEWVSAISGSGGSTNYADSVKGRFTISRDNSKNTLYLQMNSLRAEDTAVYYCAGSSGWSEYWGQGTLVTVSS
VL: DIQMTQSPSSLSASVGDRVTITCRASQGIRNNLAWYQQKPGKAPKRLIYAASNLQSGVPSRFTGSGSGTEFTLIVSSLQPEDFATYYCLQHHSYPLTSGGGTKVEIK
For B3, in the assay with EGFRvIII-peptide-OVA (XenoMax approach, in words), the “binding with the pep3” value is recorded as “highly specific”. The “cross-reactivity with wild type EGFR” value in assay [2] (XenoMax approach, in words) is “limited cross-reactivity with wild type EGFR”. For the same molecule, in assay [4], the “FACS Geometric mean With glutathione 4° C.” value is 4.88 and the “FACS Geometric mean With glutathione 37° C.” value is 19.23. Further, in assay [5], the “selectivity for EGFRvIII expressing cells (H1477) as compared to ABX-EGF” value is given as “superior selectivity”.
